In IntAct's records for PubMed 29039417:

B1: Protein PTHB1 (Homo sapiens), Q3SYG4 (parent)
chain: MSLFKARDWWSTILGDKEEFDQGCLCLANVDNSGNGQDKIIVGSFMGYLRIFSPHPAKTGDGAQAEDLLLEVDLRDPVLQVEVGKFVSGTEMLHLAVLHSRKLCVYSVSGTLGNVEHGNQCQMKLMYEHNLQRTACNMTYGSFGGVKGRDLICIQSMDGMLMVFEQESYAFGRFLPGFLLPGPLAYSSRTDSFLTVSSCQQVESYKYQVLAFATDADKRQETEQQKLGSGKRLVVDWTLNIGEQALDICIVSFNQSASSVFVLGERNFFCLKDNGQIRFMKKLDWSPSCFLPYCSVSEGTINTLIGNHNNMLHIYQDVTLKWATQLPHIPVAVRVGCLHDLKGVIVTLSDDGHLQCSYLGTDPSLFQAPNVQSRELNYDELDVEMKELQKIIKDVNKSQGVWPMTEREDDLNVSVVVSPNFDSVSQATDVEVGTDLVPSVTVKVTLQNRVILQKAKLSVYVQPPLELTCDQFTFEFMTPDLTRTVSFSVYLKRSYTPSELEGNAVVSYSRPTDRNPDGIPRVIQCKFRLPLKLICLPGQPSKTASHKITIDTNKSPVSLLSLFPGFASQSDDDQVNVMGFHFLGGARITVLASKTSQRYRIQSEQFEDLWLITNELILRLQEYFEKQGVKDFACSFSGSIPLQEYFELIDHHFELRINGEKLEELLSERAVQFRAIQRRLLARFKDKTPAPLQHLDTLLDGTYKQVIALADAVEENQGNLFQSFTRLKSATHLVILLIALWQKLSADQVAILEAAFLPLQEDTQELGWEETVDAAISHLLKTCLSKSSKEQALNLNSQLNIPKDTSQLKKHITLLCDRLSKGGRLCLSTDAAAPQTMVMPGGCTTIPESDLEERSVEQDSTELFTNHRHLTAETPRPEVSPLQGVSE
partner: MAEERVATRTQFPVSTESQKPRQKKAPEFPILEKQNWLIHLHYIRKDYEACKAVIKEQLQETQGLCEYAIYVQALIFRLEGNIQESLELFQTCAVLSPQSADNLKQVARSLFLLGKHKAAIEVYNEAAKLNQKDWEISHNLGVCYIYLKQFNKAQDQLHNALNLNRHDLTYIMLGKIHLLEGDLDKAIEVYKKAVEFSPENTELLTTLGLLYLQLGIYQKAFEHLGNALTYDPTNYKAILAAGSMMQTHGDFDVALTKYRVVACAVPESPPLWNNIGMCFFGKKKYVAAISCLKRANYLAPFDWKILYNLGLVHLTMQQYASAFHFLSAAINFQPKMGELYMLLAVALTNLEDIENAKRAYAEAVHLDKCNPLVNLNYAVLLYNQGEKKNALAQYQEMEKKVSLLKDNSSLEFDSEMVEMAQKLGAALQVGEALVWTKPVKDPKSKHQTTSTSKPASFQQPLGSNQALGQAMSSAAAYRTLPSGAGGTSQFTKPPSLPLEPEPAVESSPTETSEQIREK

Variants of: B1
Conditions: with bbs4_human BBS4, Q96RK4

effect of a mutation on the interaction	Variant
with no effect	D700A
with no effect	D700E
with no effect	D700K
with no effect	Q717A
with no effect	Q717K
with no effect	Q717E
with no effect	S723E
disrupting interaction strength	S723P
with no effect	S723A
disrupting interaction strength	S723K
with no effect	P689E
with no effect	P689A
with no effect	P689K
with no effect	R726E
with no effect	R726K
with no effect	R726A
with no effect	A712K
with no effect	A712E
with no effect	P691E
with no effect	P691A
with no effect	P691K
disrupting interaction strength	P691L
disrupting interaction strength	P691S
with no effect	N716A
with no effect	N716K

effect of a mutation on the interaction	Variant
with no effect	N716E
with no effect	L727A
with no effect	L727E
disrupting interaction strength	L727P
with no effect	L727K
with no effect	A708K
with no effect	A708E
with no effect	L680K
with no effect	T688E
with no effect	T688A
with no effect	T688K
with no effect	H694A
disrupting interaction strength	H694Y
with no effect	H694K
disrupting interaction strength	H694E
with no effect	Q722K
with no effect	Q722A
with no effect	Q722E
with no effect	G701A
with no effect	G701K
disrupting interaction strength	G701E
with no effect	Q705K
with no effect	Q705E
with no effect	Q705A
disrupting interaction strength	Q705M

effect of a mutation on the interaction	Variant
disrupting interaction strength	N719A
with no effect	N719E
with no effect	N719K
with no effect	F724A
disrupting interaction strength	F724E
with no effect	F724K
with no effect	F684E
with no effect	F684A
with no effect	F684K
with no effect	A730K
with no effect	A730E
with no effect	V734A
with no effect	L681A
with no effect	L681K
with no effect	L681E
disrupting interaction strength	T697C
with no effect	T697A
with no effect	T697E
with no effect	T697K
disrupting interaction strength	A690K
disrupting interaction strength	A690V
with no effect	A690E
disrupting interaction strength	L698S
with no effect	L698K
with no effect	L698A

effect of a mutation on the interaction	Variant
disrupting interaction strength	L698E
with no effect	F721E
with no effect	F721A
disrupting interaction strength	F721K
with no effect	A710K
with no effect	A710E
with no effect	T702A
with no effect	T702K
with no effect	T702E
disrupting interaction strength	T702C
disrupting interaction strength	T702R
with no effect	S729K
with no effect	S729A
with no effect	S729E
disrupting interaction strength	E715K
with no effect	E715A
with no effect	L733E
with no effect	L733K
disrupting interaction strength	L733A
with no effect	D711K
with no effect	D711E
with no effect	D711A
with no effect	K687E
with no effect	K687A
with no effect	K685A

effect of a mutation on the interaction	Variant
disrupting interaction strength	K685E
disrupting interaction strength	L699K
with no effect	L699E
with no effect	L699A
with no effect	T731K
disrupting interaction strength	T731E
with no effect	T731A
disrupting interaction strength	T731I
disrupting interaction strength	K728R
with no effect	K728A
with no effect	K728E
with no effect	K704E
with no effect	K704A
with no effect	A682E
with no effect	A682K
with no effect	T725A
with no effect	T725K
with no effect	T725E
with no effect	L709A
with no effect	L709K
with no effect	L709E
disrupting interaction strength	L692A
with no effect	L692K
with no effect	L692E
with no effect	I707E

effect of a mutation on the interaction	Variant
with no effect	I707K
with no effect	I707A
with no effect	G718E
disrupting interaction strength	G718T
with no effect	G718A
disrupting interaction strength	G718D
disrupting interaction strength	G718S
with no effect	G718K
with no effect	E714A
with no effect	E714K
with no effect	D686A
with no effect	D686E
with no effect	D686K
with no effect	L720E
with no effect	L720A
with no effect	L720K
with no effect	Y703E
with no effect	Y703A
disrupting interaction strength	Y703H
with no effect	Y703K
with no effect	R683A
with no effect	R683E
with no effect	R683K
with no effect	Q693K
with no effect	Q693E

effect of a mutation on the interaction	Variant
disrupting interaction strength	Q693A
with no effect	V713E
with no effect	V713A
with no effect	V713K
with no effect	D696K
with no effect	D696E
with no effect	D696A
disrupting interaction strength	D696N
disrupting interaction strength	D696V
with no effect	V706A
with no effect	V706K
with no effect	V706E
disrupting interaction strength	L695M
with no effect	L695A
with no effect	L695K
with no effect	L695E
with no effect	H732A
with no effect	H732K
with no effect	H732E
